Measured values published in patent publication US20220041721A1 (WUHAN YZY BIOPHARMA, published 2022).

How the values were obtained:
human CD3 [1] = target: T1, human CD3 (human, UniProt P07766 23-207); experiment: cell-based or functional assay
human CD3 [2] = target: T1, human CD3; experiment: flow cytometry on human CD3 positive T cells
monkey CD3 = target: T2, monkey CD3 (monkey); experiment: flow cytometry on monkey CD3 positive T cells
T2 construct: whole, on cells; also called CD3 on monkey CD3 positive T cells

Human CD38 = target: T3, Human CD38 (human, UniProt P28907 1-300); experiment: flow cytometry on CD38 positive tumor cells (MM.1S or RPMI 8226)
T3 construct: whole, on cells; the assays used the protein on tumor cells

| Binder | Cytotoxicity EC50 against lung cancer cells H358 (human PBMC 10:1, 48 h); control with CD3 arm only, no tumor antigen arm (human CD3 [1]) [µg/mL] | EC50 (human CD3 [2]) [nM] | EC50 (monkey CD3) [nM] | EC50 (Human CD38) [nM] |
| --- | --- | --- | --- | --- |
| MS-hCD3-IC15 (bispecific antibody, human IgG1, kappa, N297Q) scFv: not shown heavy: EVKLDETGGGLVQPGRPMKLSCVASGFTFSDYWMNWVRQSPEKGLEWVAQIRNKPYNYETYYSDSVKGRFTISRDDSKSSVYLQMNNLRVEDMGIYYCTGSYYGMDYWGQGTSVTVSSASTKGPSVFPLAPSSKSTSGGTAALGCLVKDYFPEPVTVSWNSGALTSGVHTFPAVLQSSGLYSLSSVVTVPSSSLGTQTYICNVNHKPSNTKVDKKVEPKSCDKTHTCPPCPAPELLGGPSVFLFPPKPKDTLMISRTPEVTCVVVDVSHEDPEVKFNWYVDGVEVHNAKTKPREEQYQSTYRVVSVLTVLHQDWLNGKEYKCKVSNKALPAPIEKTISKAKGQPREPQVYTLPPCRDELTKNQVSLWCLVKGFYPSDIAVEWESNGQPENNYKTTPPVLDSDGSFFLYSKLTVDKSRWQQGNVFSCSVMHEALHNHYTQKSLSLSPGK light: DVVMTQTPLSLPVSLGDQASISCRSSQSLVHSNGNTYLRWYLQKPGQSPKVLIYKVSNRFSGVPDRFSGSGSGTDFTLKISRVEAEDLGVYFCSQSTHVPWTFGGGTKLEIKRTVAAPSVFIFPPSDEQLKSGTASVVCLLNNFYPREAKVQWKVDNALQSGNSQESVTEQDSKDSTYSLSSTLTLSKADYEKHKVYACEVTHQGLSSPVTKSFNRGEC | 0.172 | 194 | 378 | – |
| Y150-F9-7 (bispecific antibody, human IgG1, lambda) scFv: QVQLVESGGGVVQPGRSLRLSCAASGFTFSTYAMNWVRQAPGKGLEWVARIRSKYNNYATYYADSVKDRFTISRDDSKNTLYLQMNSLRAEDTAVYYCARHGNFGNSYVSWFAYWGQGTLVTVSSGGGGSGGGGSGGGGSQTVVTQEPSLTVSPGGTVTLTCRSSTGAVTTSNYANWVQQKPGQAPRGLIGGTNKRAPGVPARFSGSLLGGKAALTLSGVQPEDEAEYYCALWYSNLWVFGGGTKVEIKGGGGSDKTHTCPPCPAPEFEGGPSVFLFPPKPKDTLMISRTPEVTCVVVDVSHEDPEVKFNWYVDGVEVHNAKTKPREEQYNSTYRVVSVLTVLHQDWLNGKEYKCKVSNKALPASIEKTISKAKGQPREPQVCTLPPSRDELTKNQVSLSCAVKGFYPSDIAVEWESNGQPENNYKTTPPVLDSDGSFFLVSKLTVDKSRWQQGNVFSCSVMHEALHNHYTQKSLSLSPGK heavy: not shown light: DIELTQPPSVSVAPGQTARISCSGDNLRHYYVYWYQQKPGQAPVLVIYGDSKRPSGIPERFSGSNSGNTATLTISGTQAEDEADYYCQTYTGGASLVFGGGTKLTVLGQPKAAPSVTLFPPSSEELQANKATLVCLISDFYPGAVTVAWKADSSPVKAGVETTTPSKQSNNKYAASSYLSLTPEQWKSHRSYSCQVTHEGSTVEKTVAPTECS | – | 426 | 422 | 103 |
| MS-hCD3-IC18 (bispecific antibody, human IgG1, kappa, 4420 Fab arm and anti-CD3 scFv (VH2j/VL5a)-Fc fusion peptide, CH2 SG2) scFv: QVQLVESGGGVVQPGRSLRLSCAASGFTFSTYAMNWVRQAPGKGLEWVARIRSKYNNYATYYADSVKDRFTISRDDSKNTLYLQMNSLRAEDTAVYYCARHGNFGNSYVSWAAYWGQGTLVTVSSGGGGSGGGGSGGGGSQTVVTQEPSLTVSPGGTVTLTCRSSTGAVTTSNYANWFQQKPGQAPRGLIGGTNKRAPGVPARFSGSLLGGKAALTLSGVQPEDEAEYYCALWYSNLWVFGGGTKVEIKGGGGSDKTHTCPPSPAPPVAGPSVFLFPPKPKDTLMISRTPEVTCVVVDVSHEDPEVQFNWYVDGVEVHNAKTKPREEQFNSTFRVVSVLTVVHQDWLNGKEYKCKVSNKGLPAPIEKTISKTKGQPREPQVCTLPPSRDELTKNQVSLSCAVKGFYPSDIAVEWESNGQPENNYKTTPPVLDSDGSFFLVSKLTVDKSRWQQGNVFSCSVMHEALHNHYTQKSLSLSPGK heavy: EVKLDETGGGLVQPGRPMKLSCVASGFTFSDYWMNWVRQSPEKGLEWVAQIRNKPYNYETYYSDSVKGRFTISRDDSKSSVYLQMNNLRVEDMGIYYCTGSYYGMDYWGQGTSVTVSSASTKGPSVFPLAPSSKSTSGGTAALGCLVKDYFPEPVTVSWNSGALTSGVHTFPAVLQSSGLYSLSSVVTVPSSSLGTQTYICNVNHKPSNTKVDKKVEPKSCDKTHTCPPSPAPPVAGPSVFLFPPKPKDTLMISRTPEVTCVVVDVSHEDPEVQFNWYVDGVEVHNAKTKPREEQFNSTFRVVSVLTVVHQDWLNGKEYKCKVSNKGLPAPIEKTISKTKGQPREPQVYTLPPCRDELTKNQVSLWCLVKGFYPSDIAVEWESNGQPENNYKTTPPVLDSDGSFFLYSKLTVDKSRWQQGNVFSCSVMHEALHNHYTQKSLSLSPGK light: DVVMTQTPLSLPVSLGDQASISCRSSQSLVHSNGNTYLRWYLQKPGQSPKVLIYKVSNRFSGVPDRFSGSGSGTDFTLKISRVEAEDLGVYFCSQSTHVPWTFGGGTKLEIKRTVAAPSVFIFPPSDEQLKSGTASVVCLLNNFYPREAKVQWKVDNALQSGNSQESVTEQDSKDSTYSLSSTLTLSKADYEKHKVYACEVTHQGLSSPVTKSFNRGEC | – | 582 | 680 | – |
| Y150-F9-6 (bispecific antibody, human IgG1, lambda, Comparative: anti-CD38 (MOR) Fab arm and anti-CD3 scFv (SP34)-Fc fusion peptide; 150 is used) scFv: EVQLVESGGGLVQPKGSLKLSCAASGFTFNTYAMNWVRQAPGKGLEWVARIRSKYNNYATYYADSVKDRFTISRDDSQSILYLQMNNLKTEDTAMYYCVRHGNFGNSYVSWFAYWGQGTLVTVSSGGGGSGGGGSGGGGSQAVVTQESALTTSPGETVTLTCRSSTGAVTTSNYANWVQEKPDHLFTGLIGGTNKRAPGVPARFSGSLIGDKAALTITGAQTEDEAIYFCALWYSNLWVFGGGTKLTVLGDGDGSDKTHTCPPCPAPEFEGGPSVFLFPPKPKDTLMISRTPEVTCVVVDVSHEDPEVKFNWYVDGVEVHNAKTKPREEQYNSTYRVVSVLTVLHQDWLNGKEYKCKVSNKALPASIEKTISKAKGQPREPQVCTLPPSRDELTKNQVSLSCAVKGFYPSDIAVEWESNGQPENNYKTTPPVLDSDGSFFLVSKLTVDKSRWQQGNVFSCSVMHEALHNHYTQKSLSLSPGK heavy: not shown light: DIELTQPPSVSVAPGQTARISCSGDNLRHYYVYWYQQKPGQAPVLVIYGDSKRPSGIPERFSGSNSGNTATLTISGTQAEDEADYYCQTYTGGASLVFGGGTKLTVLGQPKAAPSVTLFPPSSEELQANKATLVCLISDFYPGAVTVAWKADSSPVKAGVETTTPSKQSNNKYAASSYLSLTPEQWKSHRSYSCQVTHEGSTVEKTVAPTECS | – | 111 | 130 | 27.1 |
| IC-2 (bispecific antibody, human IgG1, kappa, Comparative: 4420 Fab arm and anti-CD3 scFv (SP34)-Fc fusion peptide, CH2 FES) scFv: EVQLVESGGGLVQPKGSLKLSCAASGFTFNTYAMNWVRQAPGKGLEWVARIRSKYNNYATYYADSVKDRFTISRDDSQSILYLQMNNLKTEDTAMYYCVRHGNFGNSYVSWFAYWGQGTLVTVSSGGGGSGGGGSGGGGSQAVVTQESALTTSPGETVTLTCRSSTGAVTTSNYANWVQEKPDHLFTGLIGGTNKRAPGVPARFSGSLIGDKAALTITGAQTEDEAIYFCALWYSNLWVFGGGTKLTVLGDGDGSDKTHTCPPCPAPEFEGGPSVFLFPPKPKDTLMISRTPEVTCVVVDVSHEDPEVKFNWYVDGVEVHNAKTKPREEQYNSTYRVVSVLTVLHQDWLNGKEYKCKVSNKALPASIEKTISKAKGQPREPQVCTLPPSRDELTKNQVSLSCAVKGFYPSDIAVEWESNGQPENNYKTTPPVLDSDGSFFLVSKLTVDKSRWQQGNVFSCSVMHEALHNHYTQKSLSLSPGK heavy: EVKLDETGGGLVQPGRPMKLSCVASGFTFSDYWMNWVRQSPEKGLEWVAQIRNKPYNYETYYSDSVKGRFTISRDDSKSSVYLQMNNLRVEDMGIYYCTGSYYGMDYWGQGTSVTVSSASTKGPSVFPLAPSSKSTSGGTAALGCLVKDYFPEPVTVSWNSGALTSGVHTFPAVLQSSGLYSLSSVVTVPSSSLGTQTYICNVNHKPSNTKVDKKVEPKSCDKTHTCPPCPAPEFEGGPSVFLFPPKPKDTLMISRTPEVTCVVVDVSHEDPEVKFNWYVDGVEVHNAKTKPREEQYNSTYRVVSVLTVLHQDWLNGKEYKCKVSNKALPASIEKTISKAKGQPREPQVYTLPPCRDELTKNQVSLWCLVKGFYPSDIAVEWESNGQPENNYKTTPPVLDSDGSFFLYSKLTVDKSRWQQGNVFSCSVMHEALHNHYTQKSLSLSPGK light: DVVMTQTPLSLPVSLGDQASISCRSSQSLVHSNGNTYLRWYLQKPGQSPKVLIYKVSNRFSGVPDRFSGSGSGTDFTLKISRVEAEDLGVYFCSQSTHVPWTFGGGTKLEIKRTVAAPSVFIFPPSDEQLKSGTASVVCLLNNFYPREAKVQWKVDNALQSGNSQESVTEQDSKDSTYSLSSTLTLSKADYEKHKVYACEVTHQGLSSPVTKSFNRGEC | – | 172 | 312 | – |
| IC-3 (bispecific antibody, human IgG1, kappa, N297Q, Comparative: 4420 Fab arm and anti-CD3 scFv (SP34)-Fc fusion peptide, CH2 N297Q) scFv: not shown heavy: EVKLDETGGGLVQPGRPMKLSCVASGFTFSDYWMNWVRQSPEKGLEWVAQIRNKPYNYETYYSDSVKGRFTISRDDSKSSVYLQMNNLRVEDMGIYYCTGSYYGMDYWGQGTSVTVSSASTKGPSVFPLAPSSKSTSGGTAALGCLVKDYFPEPVTVSWNSGALTSGVHTFPAVLQSSGLYSLSSVVTVPSSSLGTQTYICNVNHKPSNTKVDKKVEPKSCDKTHTCPPCPAPELLGGPSVFLFPPKPKDTLMISRTPEVTCVVVDVSHEDPEVKFNWYVDGVEVHNAKTKPREEQYQSTYRVVSVLTVLHQDWLNGKEYKCKVSNKALPAPIEKTISKAKGQPREPQVYTLPPCRDELTKNQVSLWCLVKGFYPSDIAVEWESNGQPENNYKTTPPVLDSDGSFFLYSKLTVDKSRWQQGNVFSCSVMHEALHNHYTQKSLSLSPGK light: DVVMTQTPLSLPVSLGDQASISCRSSQSLVHSNGNTYLRWYLQKPGQSPKVLIYKVSNRFSGVPDRFSGSGSGTDFTLKISRVEAEDLGVYFCSQSTHVPWTFGGGTKLEIKRTVAAPSVFIFPPSDEQLKSGTASVVCLLNNFYPREAKVQWKVDNALQSGNSQESVTEQDSKDSTYSLSSTLTLSKADYEKHKVYACEVTHQGLSSPVTKSFNRGEC | – | 155 | 285 | – |
